Assay [1] has as its system CD11b+ DC in spleen. In words: Flow cytometric analysis of GM-CSF induced expansion of DC in B16 melanoma cell murine model. Type of assay: in vivo, C57BL/6 mice. To be noted: s.c. The source says: Animal Model (for FIGS. 5-11)
The male immunocompetent C57BL/6 mice were purchased from Shanghai Experimental Animal Center (Shanghhai, China) and maintained in the animal facility at Tongji University (Shanghai, China) according to the animal research committee's guidelines of Tongji University. To establish the tumor-bearing animal model, the male immunocompetent C57BL/6 mice 6-8 weeks old, were subcutaneously (s.c.) inoculated on their back of the ribs with 2×10^6 B16 cells, and then monitored daily for tumor growth. After 6 days (when the tumors grew up to a mean tumor volume of around 70-100 mm^3), these tumor-bearing animals were randomly numbered and then divided into groups depended on the random number. Tumor volume was measured with a caliper each three days and calculated using the following formula: [L×W^2]/2 (L=length of tumor; W=width of tumor). […]
Briefly, mice were killed, and spleens were removed into cold culture medium and processed immediately. […] All cells from all incubation periods were pooled and counted. […]
63 male 6-8 weeks old C57BL/6 mice were subcutaneously (s.c.) inoculated on their back of the ribs with 2×10^6 B16 cells, and then monitored daily for tumor growth. […] After another 1.5, 2.5, 3.5 and 4.5 days, indicated groups were sacrificed and analyzed, respectively. […]
Background: Flow cytometry measures light scatter and fluorescence of single cells or particles in a stream.

The test system of assay [2] is Ly-6G+ DC precursors and CD11b+ DC in spleen. In words: Flow cytometric analysis of GM-CSF induced expansion of DC and DC precursor in normal animals. The assay is classed as in vivo. The following applies: s.c., healthy C57BL/6 mice. On the procedure:
Spleen Tissue Dissociation (for FIG. 6-8)
Briefly, mice were killed, and spleens were removed into cold culture medium and processed immediately. Surrounding mouse tissue and fat were removed. The spleens were minced into 2-3 mm fragments, and then crushed in cold culture medium using a flat tail of syringe piston. The spleen fragments were mixed up and down several times using a 1.5 mL micropipette with a tip cut to a diameter adapted to tissue fragment size. After that, the fragments were filtered through a […] nylon mesh cell strainer (BD Biosciences, San Diego, Calif., USA). The released cells were centrifuged at 1200 RPM for 2 min and stored in cold culture medium with 30% (v/v) FCS at 4° C. All cells from all incubation periods were pooled and counted.
Flow Cytometric Analysis of GM-CSF Induced Expansion of DC and DC Precursorin Normal Animals (for FIG. 6, 7)
52 male 6-8 weeks old C57BL/6 mice were randomly numbered and then divided into 13 groups depended on the random number. 12 groups were subcutaneously (s.c.) administered murine GM-CSF (PeproTech, Cat#96-315-03-1000) 2 μg on their back of the ribs, single injection from day 1 to 12 respectively. The last group was control. After 13 days, all animals were sacrificed. […]

The test system of assay [3] is CD8+ TIL infiltration in B16 tumor. In words: Immunofluorescence analysis of CD8+ TIL infiltration in tumor. The assay is classed as in vivo, C57BL/6 mice. The following applies: B16 tumor-bearing mice. An excerpt:
Systemic Immunotherapeutic Combination Therapy (for FIG. 10, 11, 12)
72 male 6-8 weeks old C57BL/6 mice were subcutaneously (s.c.) inoculated on their back of the ribs with 2×10^6 B16 cells, and then monitored daily for tumor growth. These tumor-bearing animals were randomly numbered and then divided into 9 groups depended on the random number. Indicated groups were subjected to OVs (H101, 4×10^9 VPs) therapy i.t. and/or GM-CSF s.c. and/or PD-L1 mab (eBioscience, Cat#16-5982-85) i.p. or PBS (pH 7.4) only s.c. at indicated time points. After day 13, all animals were sacrificed and analyzed. Grouping and experiment design are illustrated in FIG. 17.
Immunofluorescence Analysis of CD8^+ TIL Infiltration in Tumor Using Systemic Immunotherapeutic Combination Therapy (for FIG. 12)
The level of CD8^+ TIL infiltration in tumor was determined by immunofluorescence staining. […] After the treatment with antifade mounting medium, fluorescence signals were detected under fluorescence microscope (BX43, OLYMPUS). Fluorescence images were analyzed using Image-Pro Plus 6.0 software and the histogram was made by GraphPad Prism 5 software and p<0.05 was considered statistically significant.

B1: murine GM-CSF: murine granulocyte-macrophage colony-stimulating factor (PeproTech, Cat#96-315-03-1000) (protein, UniProt P01587 18-141, looked up)
Granulocyte-macrophage …: APTRSPITVTRPWKHVEAIKEALNLLDDMPVTLNEEVEVVSNEFSFKKLTCVQTRLKIFEQGLRGNFTKLKGALNMTASYYQTYCPPTPETDCETQVTTYADFIDSLKTFLTDIPFECKKPGQK
Turning to B1, the “CD11b+ DC in spleen” value in assay [1] is on record as “induces up-regulation of CD11b^+ DC in spleen at Day 3.5”. For the same molecule, in assay [2], the “CD11b+ DC in spleen” value is listed as “induces expansion of CD11b^+ DC at day 2-4” and the “Ly-6G+ DC precursors in spleen” value is “induces expansion of Ly-6G^+ DC precursors at day 1”. Also, in assay [3], the “CD8+ TIL infiltration in tumor” value was “induces medium CD8^+ TIL infiltration”.
